Measurements from patent US20260266838.

Target: T1, Recombinant CC16 (uteroglobin SCGB1A1), P11684
T1 chain: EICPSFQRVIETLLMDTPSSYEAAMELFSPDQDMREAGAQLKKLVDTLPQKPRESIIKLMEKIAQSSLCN

B1: native human neutrophil elastase (protein)
chain: IVGGRRARPHAWPFMVSLQLRGGHFCGATLIAPNFVMSAAHCVANVNVRAVRVVLGAHNLSRREPTRQVFAVQRIFENGYDPVNLLNDIVILQLNGSATINANVQVAQLPAQGRRLGNGVQCLAMGWGLLGRNRGIASVLQELNVTVVTSLCRRSNVCTLVRGRQAGVCFGDSGSPLVCNGLIHGIASFVRGGCASGLYPDAFAPVAQFVNWIDSIIQ
Question: How did the “in vitro cleavage (mass spectrometry of fragments)” value turn out when B1 was run?
Answer: two peptides with unique amino acid sequences released from HNE-mediated cleavage of CC16 in vitro
